# Assay results from patent US20250326825A1, “ANTI-FABP4 ANTIBODIES AND THEIR USES” (THE HONG KONG POLYTECHNIC UNIVERSITY, priority 2024, published 2025).
# B1: rhFABP4: recombinant human FABP4 protein (Biovision) (protein, UniProt P15090 2-132, looked up)
# Fatty acid-binding protein, …: CDAFVGTWKLVSSENFDDYMKEVGVGFATRKVAGMAKPNMIISVNGDVITIKSESTFKNTEISFILGQEFDEVTADDRKVKSTITLDGGVLVHVQKWDGKSTTIKRKREDDKLVVECVMKGVTSTRVYERA
# Key:
# [1] = tested on: hepatocellular carcinoma cells; assay: Cancer stem cell functional assays (overall); format: cell-based, human; settings: hepatocellular carcinoma cells in ADCM (FIG. 9A to 9D)
# Procedure: In summary, the methods shown herein were used to evaluate the interaction between differentiated adipocytes and HCC cells using a co-culture system. The conditioned medium of the adipocytes was profiled using Orbitrap liquid chromatography mass spectrometry. The functional role of FABP4 in the regulation of liver cancer stem cells was evaluated by various cancer stem cells functional assays. In vivo functional characterization of FABP4 was performed in Fabp4 knockout mice. Molecular pathways mediating phenotypic alterations were identified using mass spectrometry, RNA sequencing analysis, and pathway analysis. The therapeutic efficacy of monoclonal neutralising antibody against FABP4 was evaluated in two mouse models, a hepatocellular carcinoma (HCC) xenograft model and a MASLD-HCC model.
# [2] = tested on: hepatocellular carcinoma cells; assay: Sphere formation / limiting dilution sphere analysis (self-renewal); format: cell-based, human
# Procedure: Sphere formation assay—Three to five hundred cells of PLC/PRF/5, Huh7 and hepatocellular carcinoma organoids (HK-HCC P1 and HCC #23) were seeded to 24-well plates coated with poly (2-hydroxyethyl methacrylate) (polyHEMA, Sigma Aldrich). Cells were grown in 500 μl of either conditioned media or serum-free 0.25% methylcellulose (Sigma-Aldrich) DMEM/F12 medium supplemented with 4 μg/mL insulin (Sigma-Aldrich), B27 (Invitrogen) and recombinant human FABP4 (rhFABP4, Biovision) at a concentration of either 20 ng/ml or 100 ng/ml. The number of tumourspheres (diameter larger than 100 μm) was counted under microscope after 8 to 12 days.
# Limiting dilution assay—Parental or shITGB1 PLC/PRF/5 and Huh7 cells were cultured in a 96-well plate coated with polyHEMA with 200 μl serum-free 0.25% methylcellulose DMEM/F12 medium supplemented with 4 μg/mL insulin, B27 and rhFABP4 when appropriate. Sphere formation was scored after 8 to 12 days under a phase contrast microscope. The frequency of sphere-forming cell was calculated accordingly using an extreme limiting dilution algorithm (ELDA).
# [3] = limits clinical use; cited from earlier work
# [4] = tested on: hepatocellular carcinoma cells; assay: Flow cytometric analysis of liver CSC markers; format: cell-based, human; settings: rhFABP4 20 ng/ml and 100 ng/ml (FIG. 2F)
# Procedure: Flow cytometric analysis—Cells were stained by Phycoerythrin (PE)-conjugated CD47 and CD90 antibodies (#536046 & #555596, BD Biosciences) in PBS with 2% FBS at 4° C. for 30 to 60 minutes. Isotype-matched mouse immunoglobulins served as controls. Samples were analysed using BD Accuri C6 flow cytometer and FACSDiva software (BD Biosciences).
# [5] = tested on: PI3K/AKT/β-catenin signalling; assay: Western blot of AKT/GSK3β/β-catenin signalling in hepatocellular carcinoma cells; format: cell-based, human; settings: ADCM or rhFABP4 treatment (FIG. 5D)
# Description: Western blot analysis—Whole cell lysates were extracted using either NETN buffer supplemented with protease inhibitor cocktail or direct lysis. Protein lysate was separated by SDS-polyacrylamide gel electrophoresis (SDS-PAGE) and transferred to polyvinylidene difluoride membrane (Millipore) for western blot analyses. Primary antibodies FABP4[EPR3579](1:1000, ab92501, Abcam), pAKT(Ser473) (D9E), pGSK3β(Ser9) (D3A4), AKT and β-catenin (D10A8) (1:1000, #4060S, #9322S, #9272S & #8480S, Cell Signaling Technology), GSK3β(clone 7) (1:1000, #610202, clone 7, BD Transduction Laboratories), DDK (OTI4C5) (1:1000,TA50011-100, Origene), ITGB1 (1:1000, 12594-1-AP, Proteintech) and β-ACTIN (AC-74) (1:5000, #A5316, Sigma Aldrich) were incubated at 4° C. overnight. After washing, the membrane was incubated with horseradish peroxidase-conjugated anti-mouse or rabbit antibody (GE HealthCare). The signals were visualized using the enhanced chemiluminescence method. Blot images were quantified by densitometry using ImageJ software. The protein expression was normalized to β-actin and expressed as fold change relative to respective controls.
# β-catenin = assay: Beta-catenin TCF binding luciferase (TOP/FOP) reporter assay; format: cell-based, human; settings: ADCM or rhFABP4 for 24 hours (FIG. 5E)
# Description: Beta-catenin TCF binding luciferase reporter assay—β-catenin activity was examined using luciferase reporter assay of TCF/LEF-dependent transcription (TOP/FOPFLASH reporter assay). Either firefly luciferase pSuper8XTOPflash or pSuper8XFOPflash constructs (gifts from Dr. Moon R, University of Washington, USA), together with Renilla luciferase construct pRL-CMV (Promega, Madison, WI, USA) for normalization of transfection efficiency, were transfected using Lipofectamine 2000. Luciferase activities were assayed using Dual-Luciferase Reporter Assay System (Promega) according to manufacturer's protocol.
# Huh7 cells = assay: In vivo tumorigenicity assay (limiting dilution), subcutaneous engraftment of pretreated Huh7 cells; set-up: species or system mouse xenograft; settings: Huh7 pretreated with rhFABP4 at 100 ng/ml, NOD/SCID mice
# Procedure: (§1) In vivo tumorigenicity assay—In vivo evaluation of tumorigenicity was performed with either male non-obese diabetic/severe combined immunodeficient (NOD/SCID) or NOD/SCID gamma mice, 4 to 6 weeks of age, by induction of tumour xenografts. Cells were suspended in 1:1 culture medium and BD Matrigel Matrix (BD Biosciences) and subcutaneously injected into the flanks of the mice, which were kept under observation. Briefly, each mouse received two injections of cells in both flanks. The cells were pretreated with either rhFABP4 (100 ng/ml) or ADCM for 24 hours, and, with their control group, were injected into NOD/SCID and NOD/SCID gamma mice, respectively. Tumours were harvested at the end of the experiment for documentation. Tumour-initiating cell frequency was calculated using Extreme Limiting Dilution Analysis (ELDA) software. No specific randomization method was used. Sample size of animals was chosen based on p-values. […] Mice were sacrificed if the percentage of body weight loss is greater than 20% including the tumour mass.
# [6] = tested on: hepatocellular carcinoma cells; assay: Migration and invasion transwell assays; format: cell-based, human; settings: rhFABP4 (FIG. 2G)
# Procedure: Migration and invasion assays—Migration assays were performed using polycarbonate membrane transwell inserts with pore size of 8 μm (Millipore). Invasion assays were performed using self-coated Matrigel (BD Biosciences) transwell inserts. Hepatocellular carcinoma cell lines (PLC/PRF/5 and Huh7) or patient-derived organoids (HK-HCC P1 and HCC #23) in serum-free medium were seeded in upper chamber, while the lower chamber was supplemented with either ADCM or 100 ng/mL rhFABP4 in serum-free medium as a chemoattractant. Serum-free DMEM was used as a negative control. Cells were incubated in humidified incubation at 37° C. for 48 hours. The transwell membranes were fixed with methanol and stained with 1% crystal violet. The membranes were cleaned and air-dried. Photographs of five randomly selected fields of the fixed cells were captured and the cells were counted using ImageJ.
# [7] = tested on: hepatocellular carcinoma patient-derived organoids (HK-HCC P1 and HCC #23); assay: Hepatocellular carcinoma patient-derived organoid assays; format: cell-based, human
# Description: Hepatocellular carcinoma patient-derived organoids and culture conditions—Hepatocellular carcinoma tissue was obtained from patients undergoing hepatectomy at Queen Mary Hospital, Hong Kong. Samples were collected from patients who had not received any previous local or systemic treatment prior to operation. For organoid cultures, cells were isolated and cultured according to protocol. Hepatocellular carcinoma patient-derived organoids labelled HCC #23 was gift from Dr. Meritxell Huch of The Gudon Institute at the University of Cambridge.
# Cell viability assay—Cell viability of organoid cultures treated with specified concentrations of rhFABP4 for 6 days was evaluated using CellTiter-Glo® Luminescent Cell Viability Assay (Promega) according to manufacturer's protocol.
# Sphere formation assay—Three to five hundred cells of PLC/PRF/5, Huh7 and hepatocellular carcinoma organoids (HK-HCC P1 and HCC #23) were seeded to 24-well plates coated with poly (2-hydroxyethyl methacrylate) (polyHEMA, Sigma Aldrich). […] The number of tumourspheres (diameter larger than 100 μm) was counted under microscope after 8 to 12 days.
# Migration and invasion assays—Migration assays were performed using polycarbonate membrane transwell inserts with pore size of 8 μm (Millipore). […] Photographs of five randomly selected fields of the fixed cells were captured and the cells were counted using ImageJ.
# PLC/PRF/5 cells = assay: In vivo tumorigenicity assay (limiting dilution), subcutaneous engraftment of pretreated PLC/PRF/5 cells; set-up: species or system mouse (mouse (mouse (human cell xenograft) cell xenograft) cell xenograft); settings: PLC/PRF/5 pretreated with rhFABP4 at 100 ng/ml, NOD/SCID mice
# Procedure: as §1
# ITGB1 = target: T1, ITGB1 (Homo sapiens, UniProt P05556); assay: Mass spectrometry / coimmunoprecipitation of FABP4 binding partner; settings: biotin-labelled rhFABP4, Huh7 membrane surface
# T1 construct: endogenous in cells; host or cells: Huh7
# T1 sequence (P05556 21-798): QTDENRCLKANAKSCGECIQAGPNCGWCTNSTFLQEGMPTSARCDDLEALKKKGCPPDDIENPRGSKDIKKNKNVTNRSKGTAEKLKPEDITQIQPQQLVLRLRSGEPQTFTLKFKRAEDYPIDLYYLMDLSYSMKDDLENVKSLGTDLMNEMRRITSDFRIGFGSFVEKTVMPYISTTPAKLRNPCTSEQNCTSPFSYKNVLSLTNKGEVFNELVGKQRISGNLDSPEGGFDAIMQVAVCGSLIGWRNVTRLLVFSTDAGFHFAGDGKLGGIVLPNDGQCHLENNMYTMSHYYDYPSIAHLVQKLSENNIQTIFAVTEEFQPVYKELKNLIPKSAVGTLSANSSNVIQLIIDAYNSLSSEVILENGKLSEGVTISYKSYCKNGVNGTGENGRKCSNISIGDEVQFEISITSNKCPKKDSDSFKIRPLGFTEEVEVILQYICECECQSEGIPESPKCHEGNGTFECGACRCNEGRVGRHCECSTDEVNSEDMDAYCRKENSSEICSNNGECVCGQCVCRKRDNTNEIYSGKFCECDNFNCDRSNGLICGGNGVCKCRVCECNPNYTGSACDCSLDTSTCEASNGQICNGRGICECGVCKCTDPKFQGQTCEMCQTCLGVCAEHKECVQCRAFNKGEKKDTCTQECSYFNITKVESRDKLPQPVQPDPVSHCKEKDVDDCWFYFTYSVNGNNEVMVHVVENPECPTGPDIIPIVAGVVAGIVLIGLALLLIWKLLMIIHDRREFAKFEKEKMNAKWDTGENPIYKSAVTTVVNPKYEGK
# Procedure: Biotinylation of rhFABP4 and Streptavidin capturing of membrane protein—rhFABP4 was biotin-labelled and crosslinked with sulfosuccinimidyl-2-[6-(biotinamido)-2-(p-azidobenzamido) hyxanoamido]ethyl-1,3′-ithiopropionate) (Sulfo-SBED, A39260, Thermo Fisher Scientific) according to manufacturer's instructions. In brief, 50 μg of rhFABP4 (#4504, BioVision) was incubated with 1 mg of dissolved Sulfo-SBED at room temperature for 30 minutes. The reaction mixture was desalted using Amicon® Ultra-0.5 centrifugal filter device with a 3,000 Molecular Weight Cut Off (Millipore, Germany). The desalted biotinylated rhFABP4 was incubated in PBS with adherent Huh7 cells at room temperature for 10 minutes. The cell surface proteins interacting with biotinylated rhFAPB4 was captured by the photoreactive aryl azide moiety using long wave-UV at 360 nm. The labelled proteins were isolated by NeutrAvidin Agarose slurry and reduced using Pierce™ Cell Surface Protein Biotinylation and Isolation Kit (#A44390, Thermo Fisher Scientific). The interacting rhFABP4-surface protein complex was isolated, and the disulfide bond reduced, resulting in the biotin label being transferred to the interacting proteins. […]
# [8] = tested on: hepatocellular carcinoma cells; assay: Annexin-V apoptosis assay (drug resistance to doxorubicin or sorafenib); format: cell-based, human; settings: rhFABP4 pretreatment (FIG. 2H)
# Procedure: Annexin-V apoptosis assay—Cells were stained by FITC-conjugated Annexin-V (BioVision) and propidium iodide (PI) (Invitrogen) in Annexin-V binding buffer (BD Biosciences) at room temperature for 30 minutes. Apoptosis percentage was determined using BD Accuri C6 flow cytometer and FACSDiva software (BD Biosciences).
molecule,measurement,setting,value
CCc1c(-c2ccccc2)c(-c2ccccc2)nn1-c1ccccc1-c1cccc(OCC(=O)O)c1 [BMS-309403],Effects of ADCM on liver cancer stem cell properties,[1],attenuation
same,Enhancing self-renewal ability of ADCM (tumoursphere formation),"[2]; PLC/PRF/5, ADCM, inhibitor at 1 μM",suppressed
same,Side effects,[3],acute cardiac depressant effect
B1,Expression of liver CSC markers,[4],promote
same,AKT phosphorylation at Ser473,[5],activated
same,GSK3β phosphorylation at Ser9,[5],inactivation
same,Total β-catenin,[5],accumulation
same,Transactivation of β-catenin (TOP/FOP reporter),β-catenin,enhanced
same,Estimated CSC frequency,Huh7 cells; extreme limiting dilution,1/3404
same,"Tumor incidence rate, 1 × 10^3 cells","Huh7 cells; subcutaneous, 1 × 10^3 cells",3/5
same,"Tumor incidence rate, 1 × 10^4 cells","Huh7 cells; subcutaneous, 1 × 10^4 cells",4/5
same,"Tumor incidence rate, 5 × 10^3 cells","Huh7 cells; subcutaneous, 5 × 10^3 cells",4/5
same,Cell migration and invasion,[6],promote
same,Self-renewal of patient-derived organoids,[7]; rhFABP4 (FIG. 4B),confer self-renewal
same,Size of organoids and their proliferative rate,"[7]; rhFABP4, 6 days, CellTiter-Glo (FIG. 4C)",increase
same,Estimated CSC frequency,PLC/PRF/5 cells; extreme limiting dilution,1/2108
same,"Tumor incidence rate, 1 × 10^3 cells","PLC/PRF/5 cells; subcutaneous, 1 × 10^3 cells",3/5
same,"Tumor incidence rate, 5 × 10^3 cells","PLC/PRF/5 cells; subcutaneous, 5 × 10^3 cells",4/5
same,Interaction with membrane receptor ITGB1,ITGB1,directly interacts
same,Resistance to doxorubicin and sorafenib treatment,[8],promote
same,Self-renewal (sphere formation),[2]; rhFABP4 20 ng/ml and 100 ng/ml (FIG. 2D),promote
